Assay results as given in US8415106B2, “Cell-based screen for agents useful for reducing neuronal demyelination or promoting neuronal remyelination” (Myelin Repair Foundation, Inc., priority 2005, dated 2013).

Test system: oligodendrocytes and myelin in the corpus callosum
Test: Cuprizone remyelination in double transgenic mice on PERK+/+ or PERK+/− background
Assay type: in vivo
Conditions: for remyelinated axons: 9 weeks
Source text: The involvement of the ER stress response in the reduction caused by IFN-γ to remyelinate lesions was examined in transgenic mice that were generated to be heterozygous for a loss of function mutation in pancreatic ER kinase (PERK) (Harding, et al., (2001) Mol Cell 7:1153-1163), and to be temporally regulated for expressing INF-γ in the CNS. TRE/IFN-γ mice were first crossed with PERK+/− mice (Harding, et al. (2001) Mol. Cell 7: 1153-1163) on the C57BL/6 background to generate mice the carry the PERK mutation, and the resulting progeny were crossed to GFAP/tTA mice to obtain transgenic mice that were heterozygous for the PERK mutation. The effect of PERK on remyelination in the presence or absence of INF-γ was evaluated as evaluated as a function of the level of myelination of oligodendrocytes in remyelinating lesions and the number of oligodendrocytes present in the remyelinating lesion.
The extent of remyelination was assessed as described in the previous examples in the corpus callosum of PERK+/+ and PERK+/− mice that were made to express INF-γ (DOX−PERK+/+ and DOX− PERK+/−), and in mice in which the expression of INF-γ was repressed (DOX+PERK+/+ and DOX+PERK+/−). Remyelination was determined by electron microscopy, and was related to the number of CC1 positive oligodendrocytes and the level of caspase-3 expression in the corpus callosum of all animals. The level of caspase-3 was determined by immunohistochemical methods using anti capsase antibody (active-casoase-3 antibody, 1:50; Cel Signaling Technology) and according to the method described in Example 1. Demyelination was induced in six-week-old GFAP/tTA; TRE/IFN-γ double transgenic mice on a PERK+/− background that had been maintained on doxycycline, by simultaneously treating the mice with 0.2% cuprizone and releasing them from doxycycline (DOX−PERK+/−). Remyelination was allowed to occur by withdrawing cuprizone at week 6.

B1: IFN-γ: pleotropic cytokine secreted by activated T lymphocytes and natural killer cells; recombinant rat IFN-γ added to cultures or transgenically expressed in mouse CNS (protein, UniProt P01581 23-156, looked up)
Interferon gamma: QGTLIESLESLKNYFNSSSMDAMEGKSLLLDIWRNWQKDGNTKILESQIISFYLRLFEVLKDNQAISNNISVIESHLITNFFSNSKAKKDAFMSIAKFEVNNPQIQHKAVNELIRVIHQLSPESSLRKRKRSRC
remyelinated axons (DOX−PERK+/+ mice, DOX+ 54.0%±4.3%): 31.1%±7.6%
number of CC1 positive oligodendrocytes (DOX−PERK+/+ mice, week 9, DOX+PERK+/+ 283.2±27.7): 123.2±27.5 /0.04 mm^2
remyelinated axons (DOX−PERK+/− mice, 3 weeks after cuprizone removal): 15.6%±7.6%
number of oligodendrocytes positive for caspase-3, DOX−PERK+/− versus DOX−PERK+/+ (corpus callosum, week 9): 2.3 times
